Reference: patent US20230414780A1 (VECT HORUS, published 2023)
Numbering of substitutions follows the chain as printed.

Assays:
[1] = target: T1, human transferrin receptor (hTfR) fused to EGFP, on CHO cells (human, UniProt P02786 1-760); experiment: cell-based or functional assay
[2] = target: T1, human transferrin receptor (hTfR) fused …; experiment: flow cytometry on CHO-hTfR-EGFP cells, 1 hr at 4 C, anti-6His + Alexa647 anti-mouse; ratio to background fluorescence
Procedure: FIGS. 15A-15H: In vitro gene silencing activity of VHH-siGFPst1 bioconjugates. […] CHO-hTfR-EGFP cells were incubated 1 hr at 4° C. with various concentrations of the indicated compounds. Detection of VHHs was performed using a primary mouse anti-6His (1/1000) and an Alexa647-conjugated anti-mouse secondary antibody (1/400). Measurements of cell-surface signal associated to VHH were performed using flow cytometry. The results are expressed as the ratio of Alexa647-associated fluorescence intensity of test compounds to that of background fluorescence. […] The total fluorescence associated to the EGFP protein was then quantified using flow cytometry and rationalized to that of untreated (control) cells (set at 100%) *** p≤0.001. […] The total fluorescence associated with the EGFP protein was then quantified using flow cytometry and rationalized to that of untreated (control) cells (set at 100%). […] CHO-hTfR-EGFP cells were incubated with the indicated compounds at 1 μM during 120 hrs at 37° C. Data were processed and analyzed as described in (B). *** p≤0.001 vs. untreated cells. […] The total fluorescence associated with the EGFP protein was then quantified using flow cytometry and rationalized to that of untreated (control) cells (set at 100%).

[3] = target: T1, human transferrin receptor (hTfR) fused …; experiment: flow cytometry on CHO-hTfR-EGFP cells, 1 hr at 4 C, Alexa647 anti-hFc; apparent Kd, mean ± SEM of 3 experiments
Procedure: (§1) FIGS. 8A-8B: Apparent Kd determination of VHH-Fcs and Fc-VHHs on hTfR- and mTfR-expressing CHO cell lines. (A) CHO-hTfR-EGFP and CHO-mTfR-EGFP cells were incubated 1 hr at 4° C. with various concentrations of VHH-Fcs or Fc-VHHs, detected with an Alexa647-conjugated anti-hFc antibody (1/400). Measurements were performed using flow cytometry. The ratio of fluorescence intensity for each point was normalized with the corresponding EGFP signal (receptor expression) and gave rise to the arbitrary unit. Data are presented as mean±SEM of 3 independent experiments. (B) Characteristics of selected VHH-Fcs and Fc-VHHs: Molecular Weight (Da); Apparent Kd on human TfR (nM); Apparent Kd on mouse TfR (nM). Data are presented as mean±SEM of 3 independent experiments.
(§2) The binding properties of VHH-Fc and Fc-VHH fusion proteins with an affinity for the TfR were tested in flow cytometry experiments, and apparent affinity (K_{d app}) were determined. All experiments were performed in 96 well plates using 2-3×10⁵ cells/well, at 4° C. with shaking. […] After washes, cells were incubated for 1 hr with an Alexa647-conjugated anti-hFc antibody (Jackson ImmunoResearch). After 3 last washes and cells resuspension in PBS, fluorescence was immediately measured using a MACSQuant flow cytometer (Miltenyi), and results were analyzed with the MACSQuant software. […] The VHH-Fc and Fc-VHH K_{d app} were calculated using GraphPad Prism software (FIG. 8-B).

[4] = target: T2, mouse transferrin receptor (mTfR) fused to EGFP, on CHO cells (mouse, UniProt Q62351 1-763); experiment: flow cytometry on CHO-mTfR-EGFP cells, 1 hr at 4 C, Alexa647 anti-hFc; apparent Kd, mean ± SEM of 3 experiments
T2 construct: whole, on cells; also called mouse TfR; CHO-mTfR-EGFP; not shown: EGFP
T2 sequence (Q62351 whole entry, the tested form may be a part): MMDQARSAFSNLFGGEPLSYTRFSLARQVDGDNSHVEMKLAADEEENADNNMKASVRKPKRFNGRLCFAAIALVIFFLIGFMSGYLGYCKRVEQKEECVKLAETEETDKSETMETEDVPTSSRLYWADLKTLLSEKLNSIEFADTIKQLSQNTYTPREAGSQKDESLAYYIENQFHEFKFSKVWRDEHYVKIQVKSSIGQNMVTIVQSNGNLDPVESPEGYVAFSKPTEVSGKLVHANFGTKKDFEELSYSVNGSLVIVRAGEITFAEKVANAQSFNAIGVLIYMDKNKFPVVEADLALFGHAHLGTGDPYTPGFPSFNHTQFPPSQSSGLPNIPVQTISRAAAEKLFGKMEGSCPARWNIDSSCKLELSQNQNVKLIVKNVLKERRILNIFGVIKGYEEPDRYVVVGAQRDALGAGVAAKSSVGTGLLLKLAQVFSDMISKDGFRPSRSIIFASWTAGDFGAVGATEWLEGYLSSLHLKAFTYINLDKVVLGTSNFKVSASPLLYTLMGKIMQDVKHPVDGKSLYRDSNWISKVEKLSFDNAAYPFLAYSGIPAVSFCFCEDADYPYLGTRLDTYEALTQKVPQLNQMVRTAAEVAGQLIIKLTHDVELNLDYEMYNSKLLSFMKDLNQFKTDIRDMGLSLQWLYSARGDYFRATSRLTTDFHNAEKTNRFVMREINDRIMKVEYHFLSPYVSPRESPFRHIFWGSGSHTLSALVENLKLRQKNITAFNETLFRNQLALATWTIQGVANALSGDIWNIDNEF
Procedure: as §1, §2

[5] = target: T1, human transferrin receptor (hTfR) fused …; experiment: apparent Kd, flow cytometry, CHO cells
Procedure: (§3) All experiments were performed in 96 well plates using 2×10⁵ cells/well, at 4° C. with shaking. CHO cell lines stably expressing the hTfR or the mTfR fused to EGFP or CHO WT cells were saturated with PBS/BSA 2% solution during 30 min to avoid non-specific binding, followed by incubation with purified VHHs at concentrations ranging from 50 μM to 5 μM for 1 hr. After one wash in PBS/BSA 2%, cells were incubated for 1 hr with an anti-6His tag antibody (mouse), washed twice with PBS/BSA 2%, and incubated for 45 min with an Alexa647-conjugated anti-mouse secondary antibody. After two last washes in PBS/BSA 2%, cells were fixed by incubation for 15 min with PBS/PFA 2%, washed once with PBS and finally resuspended in PBS and stored at 4° C. Fluorescence levels were assessed using an Attune NxT Flow Cytometer (Thermo Fisher Scientific). […] No labeling of the CHO WT control cells was detected with all the tested VHHs (not shown). The VHH K_{d app} were calculated using GraphPad Prism software (FIG. 11-B; 12-B).

[6] = target: T2, mouse transferrin receptor (mTfR) fused …; experiment: flow cytometry on CHO-mTfR-EGFP cells, 1 hr at 4 C, Alexa647 anti-mouse; apparent Kd, mean ± SEM of 3 experiments
Procedure: FIGS. 13A-13B: Apparent Kd determination of 13C3-HC-VHH fusions on hTfR- and mTfR-expressing CHO cell lines. (A) CHO-hTfR-EGFP and CHO-mTfR-EGFP cells were incubated 1 hr at 4° C. with various concentrations of 13C3 fusions and detected with an Alexa647-conjugated anti-mouse antibody (1/400). Measurements were performed using flow cytometry. The ratio of fluorescence intensity for each point was normalized with the corresponding EGFP signal (receptor expression) and gave rise to the arbitrary unit. Data are presented as mean±SEM of 3 independent experiments. (B) Characteristics of 13C3 fusions: Molecular Weight (Da); Apparent Kd on human TfR (nM); Apparent Kd on mouse TfR (nM). Data are presented as mean±SEM of 3 independent experiments. NB: no binding, LB: low binding.
All experiments were performed in 96 well plates using 2×10⁵ cells/well, at 4° C. with shaking. CHO cell lines stably expressing the hTfR or the mTfR fused to EGFP or CHO WT cells were saturated with PBS/BSA 2% solution during 30 min to avoid non-specific binding, followed by incubation with purified VHHs at concentrations ranging from 50 μM to 5 μM for 1 hr. After one wash in PBS/BSA 2%, cells were incubated for 1 hr with an anti-6His tag antibody (mouse), washed twice with PBS/BSA 2%, and incubated for 45 min with an Alexa647-conjugated anti-mouse secondary antibody. After two last washes in PBS/BSA 2%, cells were fixed by incubation for 15 min with PBS/PFA 2%, washed once with PBS and finally resuspended in PBS and stored at 4° C. Fluorescence levels were assessed using an Attune NxT Flow Cytometer (Thermo Fisher Scientific).

[7] = target: T2, mouse transferrin receptor (mTfR) fused …; experiment: apparent Kd, flow cytometry, CHO cells
Procedure: as §3

[8] = target: T1, human transferrin receptor (hTfR) fused …; experiment: apparent Kd, cell-based assay

T1 sequence (P02786 whole entry, the tested form may be a part): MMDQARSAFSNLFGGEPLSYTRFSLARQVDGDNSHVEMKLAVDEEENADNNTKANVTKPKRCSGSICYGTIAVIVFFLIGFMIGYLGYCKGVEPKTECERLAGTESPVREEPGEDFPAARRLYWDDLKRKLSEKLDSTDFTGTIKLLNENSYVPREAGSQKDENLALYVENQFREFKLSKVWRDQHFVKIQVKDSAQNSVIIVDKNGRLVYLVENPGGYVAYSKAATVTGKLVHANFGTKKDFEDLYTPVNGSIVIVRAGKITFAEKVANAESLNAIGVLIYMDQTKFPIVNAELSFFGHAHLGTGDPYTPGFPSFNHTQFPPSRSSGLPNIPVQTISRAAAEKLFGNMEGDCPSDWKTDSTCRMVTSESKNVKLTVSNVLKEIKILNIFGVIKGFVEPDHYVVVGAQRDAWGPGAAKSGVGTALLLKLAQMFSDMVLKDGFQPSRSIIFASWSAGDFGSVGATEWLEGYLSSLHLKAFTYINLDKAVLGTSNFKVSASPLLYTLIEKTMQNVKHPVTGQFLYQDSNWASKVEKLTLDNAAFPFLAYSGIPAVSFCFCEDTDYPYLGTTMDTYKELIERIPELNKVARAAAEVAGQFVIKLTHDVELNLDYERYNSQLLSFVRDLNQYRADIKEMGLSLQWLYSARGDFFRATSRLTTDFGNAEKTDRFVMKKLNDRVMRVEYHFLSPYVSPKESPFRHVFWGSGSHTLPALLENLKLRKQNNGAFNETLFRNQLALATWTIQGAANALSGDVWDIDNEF

B1: VHH A-siGFPst1 bioconjugate (VHH)
VHH: EVQLVESGGGVVQPGGSLKLSCVASGTDFSINFIRWYRQAPGKQREFVAGFTATGNTNYADSMKGRFTISRDNTKNAVYLQIDSLKPEDTAVYYCYMLDKWGQGTQVTVSS
modifications: siGFPst1 siRNA linked by azide/DBCO click chemistry to the Gln of the C-terminal Q-tag
notes: not shown: C-terminal tag with His tag and Q-tag (Q-tagged VHH)
IC50 of reduction of GFP protein levels, 6-hour pulse and chase to 120 hrs [1]: 1.24 nM | IC50 of reduction of GFP protein levels, free uptake 120 hrs [1]: 2.73 nM | EC50 (read off the curve) [2]: ~3 nM

B2: Fc-VHH A (Fc fusion)
VHH: B1 VHH
modifications: Genetic fusion with the VHH at the C-terminus of a human IgG1 Fc. It forms a homodimer, so it is bivalent.
notes: not shown: Human IgG1 Fc of the pINFUSE-IgG1-Fc2 vector (InvivoGen), N-terminal to the VHH, and any junction or linker residues
Kd [3]: 1.3 nM | Kd [4]: 22 nM

B3: VHH A12 (C5^V12) (VHH)
VHH: B1 VHH with F51I
Kd [5]: 363 nM

B4: Fc-VHH B (Fc fusion)
VHH: EVQLVESGGGVVQPGGSLRLSCAASGEIFSINFMRWYRQAPGKQREWVAGFTRDGSTNYPDSAKGRFTISRDNAKNTVYLQIDSLKPEDTAVYYCYMLDTWGQGTQVTVSS
modifications: Genetic fusion with the VHH at the C-terminus of a human IgG1 Fc. It forms a homodimer, so it is bivalent.
notes: as for B2
Kd [3]: 1.5 nM | Kd [4]: 51 nM

B5: 13C3-HC-VHH A (antibody, mouse IgG1)
heavy: QVQLQQSGPELVRPGVSVKISCKGSGYTFTDYAMHWVKQSHAKSLEWIGVISTKYGKTNYNQKFKGKATMTVDKSSSTAYMELARLTSEDSAIYYCARGDDGYSWGQGTSVTVSSAKTTPPSVYPLAPGSAAQTNSMVTLGCLVKGYFPEPVTVTWNSGSLSSGVHTFPAVLQSDLYTLSSSVTVPSSTWPSETVTCNVAHPASSTKVDKKIVPRDCGCKPCICTVPEVSSVFIFPPKPKDVLTITLTPKVTCVVVDISKDDPEVQFSWFVDDVEVHTAQTQPREEQFNSTFRSVSELPIMHQDWLNGKEFKCRVNSAAFPAPIEKTISKTKGRPKAPQVYTIPPPKEQMAKDKVSLTCMITDFFPEDITVEWQWNGQPAENYKNTQPIMDTDGSYFVYSKLNVQKSNWEAGNTFTCSVLHEGLHNHHTEKSLSHSPGGGGGMAEVQLVESGGGVVQPGGSLKLSCVASGTDFSINFIRWYRQAPGKQREFVAGFTATGNTNYADSMKGRFTISRDNTKNAVYLQIDSLKPEDTAVYYCYMLDKWGQGTQVTVSSAAA
light: DVVMTQTPLSLPVSLGDQASISCRSGQSLVHSNGNTYLHWYLQKPGQSPKLLIYTVSNRFSGVPDRFSGSGSGSDFTLKISRVEAEDLGVYFCSQNTFVPWTFGGGTKLEIKRADAAPTVSIFPPSSEQLTSGGASVVCFLNNFYPKDINVKWKIDGSERQNGVLNSWTDQDSKDSTYSMSSTLTLTKDEYERHNSYTCEATHKTSTSPIVKSFNRNEC
notes: mouse IgG1 13C3 (anti beta-amyloid protofibril) with VHH A at the C-ter of each heavy chain
Kd [6]: 11.3 nM

B6: 13C3-HC-VHH A6 (antibody)
heavy: B5 heavy with M541A
light: B5 light
Kd [6]: 23 nM

B7: 13C3-HC-VHH A8 (antibody)
heavy: B5 heavy with D543A
light: B5 light
Kd [7]: 315 nM

B8: VHH B-Fc (Fc fusion)
chain: B4 VHH
notes: not shown: human IgG1 Fc fragment of the pINFUSE-IgG1-Fc2 vector (InvivoGen)
Kd [3]: 1.2 nM | Kd [4]: 0.61 nM

B9: C5h18-NT(8-13) (VHH)
VHH: B1 VHH with Q44G, R45L, M63V, T74A, A77T, V78L, I82M, D83N, K86R
Kd [8]: 16.8 nM

B10: 13C3-LC-VHH A (antibody)
light: DVVMTQTPLSLPVSLGDQASISCRSGQSLVHSNGNTYLHWYLQKPGQSPKLLIYTVSNRFSGVPDRFSGSGSGSDFTLKISRVEAEDLGVYFCSQNTFVPWTFGGGTKLEIKRADAAPTVSIFPPSSEQLTSGGASVVCFLNNFYPKDINVKWKIDGSERQNGVLNSWTDQDSKDSTYSMSSTLTLTKDEYERHNSYTCEATHKTSTSPIVKSFNRNECSGSGGGGGMAEVQLVESGGGVVQPGGSLKLSCVASGTDFSINFIRWYRQAPGKQREFVAGFTATGNTNYADSMKGRFTISRDNTKNAVYLQIDSLKPEDTAVYYCYMLDKWGQGTQVTVSSAAA
heavy: QVQLQQSGPELVRPGVSVKISCKGSGYTFTDYAMHWVKQSHAKSLEWIGVISTKYGKTNYNQKFKGKATMTVDKSSSTAYMELARLTSEDSAIYYCARGDDGYSWGQGTSVTVSSAKTTPPSVYPLAPGSAAQTNSMVTLGCLVKGYFPEPVTVTWNSGSLSSGVHTFPAVLQSDLYTLSSSVTVPSSTWPSETVTCNVAHPASSTKVDKKIVPRDCGCKPCICTVPEVSSVFIFPPKPKDVLTITLTPKVTCVVVDISKDDPEVQFSWFVDDVEVHTAQTQPREEQFNSTFRSVSELPIMHQDWLNGKEFKCRVNSAAFPAPIEKTISKTKGRPKAPQVYTIPPPKEQMAKDKVSLTCMITDFFPEDITVEWQWNGQPAENYKNTQPIMDTDGSYFVYSKLNVQKSNWEAGNTFTCSVLHEGLHNHHTEKSLSHSPG
Kd [7]: 106 nM

B11: C12b-NT(8-13) (VHH)
VHH: QVQLVQSGGGLVQPGGSLRLSCAASGFTFSAYAMSWVRQAPGKGRELVASISRTGDGTYYADGMKGRFTISRDNAENTVSLQINSLKPEDTAIYYCGAGINPTKYWGQGTQVTVSS
Kd [8]: 1860 nM
